Results from doi:10.1101/2022.06.29.497979, “Cryo-EM structure of a eukaryotic zinc transporter at a low pH suggests its Zn^2+-releasing mechanism” (bioRxiv, 2022).

Target: the molecule itself
Experiment: cryo-EM structure; xtZnT8-Zn^2+: single-particle cryo-EM, 20 mM Tris-HCl pH 7.5, 150 mM NaCl, 5 mM beta-mercaptoethanol, 0.5 mM DDM, 1 mM ZnSO4; 3.9 A

B1: ZnT8 from Xenopus tropicalis, xtZnT8-BRIL fusion protein (natural protein, UniProt Q5XHB4 1-374, looked up)
chain: MKGSEEAYLVSDKATKMYSLTKDSEKNHPSKPPLQDEENPQSKYHCHNNNKKAYDARQREQTFAKKKLCIASLICFVFISAEIVGGYIAGSLAVVTDAAHLLVDLSSFFISLCSLWLSSKSSTTRLTFGWHRAEILGALMSVITIWLVTGVLVYLACERLIRPDYTIDGTVMLITSACALGANLVLALILHQSGHGHSHAGGKHEHMASEYKPQTNASIRAAFIHVIGDLFQSISVLISALIIYFKPEYKMADPICTFIFSIFVLITTVTVLRDLLTVLMEGTPRGIHYSDVKQSILAVDGVKSVHSLHLWALTMNQVILSAHIATDIVGESKRILKDVTQNVFARFPFHSVTIQVEPIEDQSPECMFCYEPTQ
notes: Zinc transporter 8 (ZnT8, SLC30A8) from Xenopus tropicalis, full-length wild type, NCBI NP_001011041.1; BRIL was fused to the carboxy-end of xtZnT8 before the TEV site and His10; it is written as a carrier under tags; also called zinc transporter 8; xtZnT8-Zn^2+; not shown: BRIL (bacterial cytochrome b562RIL), C-terminal, kept
B1 was tested, and the “stoichiometry N” value was 2.
